B1: Azoarcus group I ribozyme (parent)
chain: GUGCCUUGCGCCGGGAAACCACGCAAGGGAUGGUGUCAAAUUCGGCGAAACCUAAGCGCCCGCCCGGGCGUAUGGCAACGCCGAGCCAAGCUUCGGCGCCUGCGCCGAUGAAGGUGUAGAGACUAGACGGCACCCACCUAAGGCAAACGCUAUGGUGAAGGCAUAGUCCAGGGAGUGGCGAAAGUCACACAAACCGG

Variants of: B1
Assay: reverse-splicing fitness (ratio to wild type); higher = more active; in vitro selection; Mg2+ level not given
Outline: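 An in vitro group I ribozyme library with randomized positions was T7-transcribed and gel-purified. In triplicate, 10 pmol RNA in EPPS pH 7.5 was reacted with 50 pmoles of a 30-nt RNA substrate for 1 h at 37 °C across several added MgCl2 levels (1–48 mM), then stopped with EDTA. Products were reverse transcribed from a substrate-complementary primer, PCR-amplified and sequenced (HiSeq 4000). Fitness is a variant's read proportion after selection over that before, normalised to wild type.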

Variant | reverse-splicing fitness
C82A A111C A145U C150A U176A | 0.0127
C82A A111C A145G C150U U176G | 0.0141
C82A A111C A145G C150U U176A | 0.0494
C82A A111C A145G C150U U176C | 0.086
C82A A111C C150G C169G U176C | 0.00508
C82A A111C C150G C169G U176G | 0.00585
C82A A111C C150G C169G U176A | 0.00718
C82A A111C A120U C150G C169G U176A | 0.00439
C82A A111C A120U C150G C169G U176G | 0.00279
C82A A111C A120U C150G C169G U176C | 0.00343
C82A A111C A120U C150U C169G U176G | 0.00288
C82A A111C A120U C150U C169G U176A | 0.00669
C82A A111C A120U C150U C169G U176C | 0.00483
C82A A111C A145U C150G C169A U176G | 0.00861
C82A A111C A145U C150G C169A U176C | 0.0117
C82A A111C A145U C150G C169A U176A | 0.0098
C82A A111C A120U C150U U176G | 0.00381
C82A A111C A120U C150U U176A | 0.00771
C82A A111C A120U C150U U176C | 0.0107
C82A A111C A120U C150U C169A U176A | 0.00537
C82A A111C A120U C150U C169A U176G | 0.00324

Variant | reverse-splicing fitness
C82A A111C A120U C150U C169A U176C | 0.00323
C82A A111C A120U U176A | 0.00732
C82A A111C A120U U176C | 0.0115
C82A A111C A120U U176G | 0.00382
C82A A111C A120U C150A C169G U176A | 0.00598
C82A A111C A120U C150A C169G U176C | 0.00395
C82A A111C A120U C150A C169G U176G | 0.00295
C82A A111C A120U C150G C169A U176A | 0.00579
C82A A111C A120U C150G C169A U176G | 0.00319
C82A A111C A120U C150G C169A U176C | 0.00597
C82A A111C A145U U176A | 0.073
C82A A111C A145U U176C | 0.0939
C82A A111C A145U U176G | 0.0235
C82A A111C C150A C169G | 0.00835
C82A A111C C150A C169A | 0.00979
C82A A111C C150A C169U | 0.0131
C82A A111C A145U C150G | 0.0181
C82A A111C A145U C150A | 0.0227
C82A A111C A145U C150U | 0.135
C82A A111C A145C C150U C169G | 0.0076
C82A A111C A145C C150U C169U | 0.0121

Variant | reverse-splicing fitness
C82A A111C A145C C150U C169A | 0.00801
C82A A111C A145U C169U | 0.0124
C82A A111C A145U C169A | 0.0078
C82A A111C A145U C169G | 0.0101
C82A A111C A145G C150G C169G U176G | 0.00568
C82A A111C A145G C150G C169G U176C | 0.0128
C82A A111C A145G C150G C169G U176A | 0.00988
C82A A111C A145G C150G | 0.0238
C82A A111C A145G C150U | 0.174
C82A A111C A145G C150A | 0.0316
C82A A111C C150U | 0.113
C82A A111C C150G | 0.016
C82A A111C C150A | 0.0239
C82A A111C A145U C150U C169G U176C | 0.0179
C82A A111C A145U C150U C169G U176A | 0.0143
C82A A111C A145U C150U C169G U176G | 0.00855
C82A A111C A120U A145U C150U U176A | 0.00713
C82A A111C A120U A145U C150U U176C | 0.00936
C82A A111C A120U A145U C150U U176G | 0.00353
C82A A111C A145U C150A C169U | 0.0123
C82A A111C A145U C150A C169G | 0.00915

Variant | reverse-splicing fitness
C82A A111C A145U C150A C169A | 0.00982
C82A A111C A145C C150U C169A U176A | 0.0127
C82A A111C A145C C150U C169A U176G | 0.0095
C82A A111C A145C C150U C169A U176C | 0.01
C82A A111C A145U C169G U176A | 0.0124
C82A A111C A145U C169G U176C | 0.0193
C82A A111C A145U C169G U176G | 0.00756
C82A A111C A120U C169G U176C | 0.00315
C82A A111C A120U C169G U176G | 0.00234
C82A A111C A120U C169G U176A | 0.00421
C82A A111C A145U C150U C169A | 0.00867
C82A A111C A145U C150U C169G | 0.00899
C82A A111C A145U C150U C169U | 0.0128
C82A A111C A145G C150A U176C | 0.0335
C82A A111C A145G C150A U176G | 0.00922
C82A A111C A145G C150A U176A | 0.0153
C82A A111C A120U A145U C150U C169G U176G | 0.00247
C82A A111C A120U A145U C150U C169G U176C | 0.00338
C82A A111C A120U C150A C169U U176G | 0.00284
C82A A111C A120U C150A C169U U176C | 0.00458
C82A A111C A120U C150A C169U U176A | 0.00806

From the RNAGym collection of RNA variant scans (doi:10.1093/molbev/msab373)
